Reference: patent US20180312587A1 (ADURO BIOTECH HOLDINGS EUROPE B V, published 2018)
Where two headings read alike, the source gives them in different places.

T1: hSIRPαV4 (NA11832_V4) (human, UniProt P78324 31-504)
T1 construct: also called human SIRPαV4
T1 chain: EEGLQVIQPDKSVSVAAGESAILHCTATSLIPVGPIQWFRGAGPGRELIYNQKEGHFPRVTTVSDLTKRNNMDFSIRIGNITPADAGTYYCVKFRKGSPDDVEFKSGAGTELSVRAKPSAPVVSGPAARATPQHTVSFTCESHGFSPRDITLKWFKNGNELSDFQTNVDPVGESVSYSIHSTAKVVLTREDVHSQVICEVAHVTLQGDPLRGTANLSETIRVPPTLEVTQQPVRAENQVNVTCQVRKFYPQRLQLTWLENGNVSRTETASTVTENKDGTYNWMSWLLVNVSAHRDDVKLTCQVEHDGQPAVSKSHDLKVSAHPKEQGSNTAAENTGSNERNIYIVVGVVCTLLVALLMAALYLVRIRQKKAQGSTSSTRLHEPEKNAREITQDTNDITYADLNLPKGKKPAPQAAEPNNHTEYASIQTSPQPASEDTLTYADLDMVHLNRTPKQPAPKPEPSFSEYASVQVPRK

B1: hSIRPα.40A (antibody, mouse IgG1, kappa, V domains shown)
VH: EVQFQQSGTVLARPGTSVKMSCKASGSTFTSYWMHWVKQGPGQGLQWIGAIYPVNNDTTYNQKFKGKAELTVVTSTSTAYMEVSSLTNEDSAVYYCTRSFYYSLDAAWFVYWGQGTLVTVSA
VL: DIQMTQSPSSLSASLGERVSLTCRASQDIGSRLNWLQQEPDGTIKRLIYATSSLDSGVPKRFSGSRSGSDYSLTISGLESEDFVDYYCLQYASSPFTFGGGTKLEINR
notes: mouse antibody, full chains without signal peptide; also called mouse hSIRPα.40A
B2: hSIRPα.50A (antibody, V domains shown)
VH: QVQLQQSGPELVKPGASVRISCKASGFTFTNYYIHWVKQRPGQGLEWIGWIYPGNVNTKYNEKFKAKATLTADKSSTTAYMQLSSLASEDSAVYFCARPTIIATDFDVWGAGTTVTVSS
VL: DIVMTQSHKFMSTSVGDRVNITCKASQGVGTAVGWYQQKPGQSPRLLIYWASTRHTGVPDRFTGSGSGTDFSLAISNVQSEDLADYFCQQYSTYPFTFGGGTNLEIK
notes: light chain constant domain not tied; also called mouse hSIRPα.50A; hSIRPα.50A.mIgG1
B3: KWAR23 (antibody, V domains shown)
VH: EVQLQQSGAELVKPGASVKLSCTASGFNIKDYYIHWVQQRTEQGLEWIGRIDPEDGETKYAPKFQDKATITADTSSNTAYLHLSSLTSEDTAVYYCARWGAYWGQGTLVTVSS
VL: QIVLTQSPAIMSASPGEKVTLTCSASSSVSSSYLYWYQQKPGSSPKLWIYSTSNLASGVPARFSGSGSGTSYSLTISSMEAEDAASYFCHQWSSYPRTFGAGTKLELK

Experiments:
human SIRPα variant 2 [1] = molecular target: T2, human SIRPα variant 2 (human, UniProt P78324 31-504); experiment: flow cytometry, blockade of DyLight488-hCD47/Fc binding to THP-1 cells
T2 construct: full length ORF on transfected CHO-K1 cells; also called hSIRPαV2; SIRPαV2
Outline: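 THP-1 or U-937 monocyte cells in 96-well round-bottom plates were incubated for 45 minutes at 4 °C in PBS/1% BSA with FcR Blocking Reagent and a dilution series of anti-SIRPα antibody. Cells were washed, resuspended with 0.1 μg/mL DAPI and measured by flow cytometry, with analysis in FlowJo. IC50 is the antibody concentration giving half-maximal inhibition of CD47/Fc binding.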
Target sequence in this assay (P78324 other isoform, or with tags, fused parts or gaps mutant limits assumed): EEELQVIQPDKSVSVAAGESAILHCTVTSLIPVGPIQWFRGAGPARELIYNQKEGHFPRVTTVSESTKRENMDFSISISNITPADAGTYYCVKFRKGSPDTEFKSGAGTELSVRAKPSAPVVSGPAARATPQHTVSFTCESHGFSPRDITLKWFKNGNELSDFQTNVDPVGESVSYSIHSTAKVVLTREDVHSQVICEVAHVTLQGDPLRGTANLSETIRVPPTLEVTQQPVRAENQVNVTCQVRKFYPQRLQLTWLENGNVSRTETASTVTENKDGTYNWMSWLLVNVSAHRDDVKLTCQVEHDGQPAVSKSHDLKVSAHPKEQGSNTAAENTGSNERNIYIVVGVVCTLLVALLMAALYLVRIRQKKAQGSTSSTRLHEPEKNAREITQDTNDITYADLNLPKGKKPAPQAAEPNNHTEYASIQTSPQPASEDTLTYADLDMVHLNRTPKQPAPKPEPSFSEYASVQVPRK

human SIRPα variant 1 [2] = molecular target: T3, human SIRPα variant 1 (human, UniProt P78324 31-504); experiment: CELISA, CHO-K1 transfectants
T3 construct: full length ORF on transfected CHO-K1 or HEK293 cells; entry includes the signal peptide; also called hSIRPαV1; SIRPαV1
Protocol: (§1) The binding specificity of antibodies hSIRPα.40A and hSIRPα.50A to hSIRPα were compared in a CELISA format. In short, CHO-K1 cells were transiently transfected with hSIRPαV1, hSIRPαV2, hSIRPβ1, hSIRPβL, and hSIRPγ cDNAs. Subsequently, hSIRPα binding was assessed by CELISA using CHO-K1.hSIRPαV1, CHO-K1.hSIRPαV2, CHO-K1.hSIRPβ1, CHO-K1.hSIRPβL, and CHO-K1.hSIRPγ cells. Detection of bound antibody was done with goat-anti-mouse IgG-HRP (Southern Biotech).
(§2) In addition, the specificity of hSIRPα.40A for all known of hSIRPα alleles (allelic variants as described by Takenaka et al., Nat Immunol. 8:1313-1323 (2007) was further investigated by CELISA using the same strategy as above. To this end, hSIRPα.40A binding was assessed using CHO-K1 cells that were transiently transfected with cDNAs encoding full length hSIRPαV1, hSIRPαV2, hSIRPαV3 (NA07056_V3) (SEQ ID NO: 44), hSIRPαV4 (NA11832_V4) (SEQ ID NO: 46), hSIRPαV5 (NA18502_V5) (SEQ ID NO: 48), hSIRPαV6 (NA18507_V6) (SEQ ID NO: 50), hSIRPαV8 (NA18570_V8) (SEQ ID NO: 52), and hSIRPαV9 (NA18943_V9) (SEQ ID NO: 54).

hSIRPαV4 (NA11832_V4) = molecular target: T1, hSIRPαV4 (NA11832_V4); experiment: CELISA, CHO-K1 transfectants
Protocol: as §1, §2

hSIRPαV6 (NA18507_V6) = molecular target: T4, hSIRPαV6 (NA18507_V6) (human, UniProt P78324 31-504); experiment: CELISA, CHO-K1 transfectants
T4 construct: also called human SIRPαV6
Protocol: as §1, §2

hSIRPαV5 (NA18502_V5) = molecular target: T5, hSIRPαV5 (NA18502_V5) (human, UniProt P78324 31-504); experiment: CELISA, CHO-K1 transfectants
T5 construct: also called human SIRPαV5
Protocol: as §1, §2

hSIRPαV8 (NA18570_V8) = molecular target: T6, hSIRPαV8 (NA18570_V8) (human, UniProt P78324 31-504); experiment: CELISA, CHO-K1 transfectants
T6 construct: also called human SIRPαV8
Protocol: as §1, §2

human SIRPα variant 2 [3] = molecular target: T2, human SIRPα variant 2; experiment: CELISA, CHO-K1 transfectants
Protocol: as §1, §2

human SIRPα variant 1 [4] = molecular target: T3, human SIRPα variant 1; experiment: CELISA, CHO-K1 transfectants; remark: listed apart in the source
Protocol: (§3) Reactivity was confirmed using CHO-K1 cells (ATCC CCL-61) that had been transiently transfected, using Lipofectamine 2000, with cDNA encoding the full length open reading frame of hSIRPαV1, hSIRPαV2, hSIRPβ1, hSIRPβL, and hSIRPγ subcloned into the pCI-neo vector (Promega, Madison, Wis.). CHO-K1.hSIRPαV1, CHO-K1.hSIRPαV2, CHO-K1.hSIRPβ1, CHO-K1.hSIRPβL, and CHO-K1.hSIRPγ cells were seeded in culture medium (DMEM-F12 (Gibco) supplemented with 5% New Born Calf Serum (BioWest) and Pen/Strep (Gibco)) in 96-well flat-bottom tissue culture plates and incubated at 37° C., 5% CO₂ and 95% humidity for 24 hours. Subsequently, culture medium was removed and cells were incubated for 1 hour at 37° C., 5% CO₂ and 95% humidity with purified hSIRPα antibodies (used at 10 μg/mL and dilutions thereof). Next, cells were washed with PBS-T and incubated for 1 hour at 37° C., 5% CO₂ and 95% humidity with goat-anti-mouse IgG-HRP (Southern Biotech). Subsequently, cells were washed three times with PBS-T and immunoreactivity against hSIRPαV1, hSIRPαV2, hSIRPβ1, hSIRPβL, and hSIRPγ was visualized with TMB Stabilized Chromogen (Invitrogen). Reactions were stopped with 0.5 M H₂SO₄ and absorbances were read at 450 and 610 nm.
(§4) The KWAR23 antibody cross-reacts with all members of the SIRP receptor family tested: it binds to hSIRPαV1, hSIRPαV2, hSIRPβ1, hSIRPβL, and hSIRPγ.
Target sequence in this assay (P78324 31-504 limits assumed, change not shown): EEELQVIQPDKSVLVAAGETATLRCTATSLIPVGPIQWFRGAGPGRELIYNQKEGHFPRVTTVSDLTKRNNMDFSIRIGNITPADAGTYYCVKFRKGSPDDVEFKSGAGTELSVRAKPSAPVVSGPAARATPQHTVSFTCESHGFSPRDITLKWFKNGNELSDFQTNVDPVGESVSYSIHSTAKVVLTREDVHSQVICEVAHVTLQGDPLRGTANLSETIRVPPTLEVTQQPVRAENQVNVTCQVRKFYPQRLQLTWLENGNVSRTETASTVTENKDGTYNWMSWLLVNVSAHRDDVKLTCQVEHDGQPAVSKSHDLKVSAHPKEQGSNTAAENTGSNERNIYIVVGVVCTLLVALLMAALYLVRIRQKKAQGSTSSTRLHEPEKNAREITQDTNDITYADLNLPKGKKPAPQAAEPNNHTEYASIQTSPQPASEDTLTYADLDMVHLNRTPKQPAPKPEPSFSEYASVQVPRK

human SIRPγ = molecular target: T7, human SIRPγ (human, UniProt Q9P1W8 29-387); experiment: CELISA, CHO-K1 transfectants
T7 construct: on transfected CHO-K1 cells; also called hSIRPγ
Protocol: as §3, §4

[5] = molecular target: T8, hSIRPβ1 transcript variant 3/hSIRPβL (human, UniProt Q5TFQ8 30-398); experiment: CELISA, CHO-K1 transfectants
T8 construct: also called human SIRPβL
Protocol: as §3, §4

human SIRPα variant 2 [6] = molecular target: T2, human SIRPα variant 2; experiment: CELISA, CHO-K1 transfectants; remark: listed apart in the source
Protocol: as §3, §4
Target sequence in this assay (P78324 other isoform, or with tags, fused parts or gaps mutant limits assumed): as the sequence (P78324 other isoform, or with tags, fused parts or gaps mutant limits assumed) above

T8 sequence (Q5TFQ8 30-398 limits assumed, change not shown): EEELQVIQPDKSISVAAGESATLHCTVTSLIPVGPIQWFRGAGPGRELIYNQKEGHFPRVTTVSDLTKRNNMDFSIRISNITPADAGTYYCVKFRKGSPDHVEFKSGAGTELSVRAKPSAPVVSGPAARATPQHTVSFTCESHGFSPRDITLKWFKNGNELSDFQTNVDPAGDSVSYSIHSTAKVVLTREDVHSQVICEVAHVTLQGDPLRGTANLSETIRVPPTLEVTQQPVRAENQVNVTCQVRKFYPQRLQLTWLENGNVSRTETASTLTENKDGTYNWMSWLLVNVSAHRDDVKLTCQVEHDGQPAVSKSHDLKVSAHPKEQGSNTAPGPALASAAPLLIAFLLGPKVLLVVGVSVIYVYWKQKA
T7 sequence (Q9P1W8 29-387 limits assumed): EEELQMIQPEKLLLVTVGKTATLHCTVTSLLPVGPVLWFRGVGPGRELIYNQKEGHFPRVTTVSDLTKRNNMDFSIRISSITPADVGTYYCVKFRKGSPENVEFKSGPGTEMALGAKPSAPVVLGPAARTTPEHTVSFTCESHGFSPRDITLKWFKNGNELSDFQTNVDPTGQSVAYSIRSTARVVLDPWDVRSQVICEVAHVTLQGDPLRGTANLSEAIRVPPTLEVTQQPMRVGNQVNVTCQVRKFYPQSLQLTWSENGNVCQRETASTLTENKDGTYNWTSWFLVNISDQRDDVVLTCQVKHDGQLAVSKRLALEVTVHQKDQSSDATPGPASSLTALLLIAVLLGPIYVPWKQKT

Binder | IC50 (human SIRPα variant 2 [1]) [pM] | EC50 (human SIRPα variant 1 [2]) [pM] | EC50 (hSIRPαV4 (NA11832_V4)) [pM] | EC50 (hSIRPαV6 (NA18507_V6)) [pM] | EC50 (hSIRPαV5 (NA18502_V5)) [pM] | EC50 (hSIRPαV8 (NA18570_V8)) [pM] | EC50 (human SIRPα variant 2 [3]) [pM] | EC50 (human SIRPα variant 1 [4]) [pM] | EC50 (human SIRPγ) [pM] | EC50 [5] [pM] | EC50 (human SIRPα variant 2 [6]) [pM]
B1 | 646 | 134 | 100 | 136 | 115 | 89 | 89 |  |  |  | 
B2 | 7830 | 1690 | 1300 | 2220 | 1260 | 1510 | 1070 | 1630 | 1480 | 639 | 1630
B3 |  |  |  |  |  |  |  | 67 | 43 | 97 | 62
